This is an account of results in paper PMC2034485 (Nucleic Acids Research, 2007).

In one assay the target is ubiquitin (UniProt P0CG48 1-76). Nature of the assay: SPR. (In general: In SPR one partner is held on a chip, and binding of the other changes the refractive index at the surface.)
The target of another assay is human Rad6 (hHR6B) (human, UniProt P63146 1-152). Kind of assay: SEC. A general note: In gel filtration, larger molecules generally elute earlier.
Sequence of human Rad6 (hHR6B) (P63146 whole entry): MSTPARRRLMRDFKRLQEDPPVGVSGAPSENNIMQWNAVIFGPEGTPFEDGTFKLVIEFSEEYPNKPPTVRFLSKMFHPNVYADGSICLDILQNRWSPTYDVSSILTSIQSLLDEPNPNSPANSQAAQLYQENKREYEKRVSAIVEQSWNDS

The term Kd denotes the concentration at which binding is half-saturated. High values mean lower affinity, low ones higher affinity. TLKQVTKVDCPVCGVNIPESHINKHLDSCLSREEKKES (domain or fragment) [GST-ZnF (Rad18 zinc finger domain)] registered a Kd with ubiquitin of 42.1 µM.

In the assay with ubiquitin, TLKQVTKVDCPVFGVNIPESHINKHLDSCLSREEKKES (domain or fragment) [GST-C207F ZnF] returned an equilibrium dissociation constant (Kd) of 192 µM.

B1: GST-fused Rad18 (1–99), Ring domain (domain or fragment)
chain: MDSLAESRWPPGLAVMKTIDDLLRCGICFEYFNIAMIIPQCSHNYCSLCIRKFLSYKTQCPTCCVTVTEPDLKNNRILDELVKSLNFARNHLLQFALES
For the molecule B1, the binding result with human Rad6 (hHR6B) is reported as “binds”.
